Experimental data from paper PMC9440762, “Anti-Stokes fluorescence excitation reveals conformational mobility of the C-phycocyanin chromophores” (Structural Dynamics, 2022).

T1: C-phycocyanin β subunit from Arthrospira platensis (Arthrospira platensis (Spirulina), UniProt P72508 1-172, phycocyanobilin covalently bound to the cysteines at positions 82 and 153)
T1 construct: C-phycocyanin β subunit, Arthrospira platensis (Spirulina); also called β C-PC chain
T1 sequence (looked up): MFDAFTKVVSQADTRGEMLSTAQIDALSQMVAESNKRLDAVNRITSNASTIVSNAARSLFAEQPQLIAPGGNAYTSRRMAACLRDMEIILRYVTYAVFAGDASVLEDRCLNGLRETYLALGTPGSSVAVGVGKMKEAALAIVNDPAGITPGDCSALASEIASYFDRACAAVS

B1: C-phycocyanin α subunit from Arthrospira platensis (natural protein)
chain: not shown
modifications: phycocyanobilin covalently bound to the cysteine at position 84
notes: C-phycocyanin α subunit, Arthrospira platensis (Spirulina); also called α C-PC chain
B2: C-phycocyanin αβ monomer (heterodimer of the α and β subunits) from Arthrospira platensis (complex)
chain 1: not shown
chain 2: T1 sequence (looked up)
modifications: phycocyanobilin covalently bound to the cysteine at position 84 | phycocyanobilin covalently bound to the cysteines at positions 82 and 153
notes: C-phycocyanin α subunit, Arthrospira platensis (Spirulina); band of apparent MW 16 or 18 kDa on SDS-PAGE; C-phycocyanin β subunit, Arthrospira platensis (Spirulina); The unit that associates with itself into the (αβ)3 trimer; Linker polypeptides are absent from the preparation; also called C-PC; PC

What was measured:
[1] = target: T1, C-phycocyanin β subunit from …; test: SEC; preparative Superdex 200 26/600, 20 mM Tris-HCl pH 7.6, 150 mM NaCl; fractions of the main peak analysed by SDS-PAGE; conditions: both partners purified
[2] = target: the molecule itself; test: SAXS; C-PC in solution at 150 mM NaCl; fits with trimer and hexamer models, MW estimate, ab initio shape by GASBOR; also at 4, 6 and 8 M urea (decrease in the oligomeric state, partial dissociation of trimers)

| Binder | binding result [1] | stoichiometry N [2] |
| --- | --- | --- |
| B1 | binds |  |
| B2 |  | 3 |
